Assay results from patent US20180072786A1.
Ends that are not written are not given here.

B1: individual phage clone 5.60, which contains the peptide sequence of Mosd1 (peptide, not shown: large carriers)
peptide: YSYLTSYHMVWR
modifications: not fully specified
B2: individual phage clone 6.242 (Mosd10) (peptide, not shown: large carriers)
peptide: HTWTHWFSWNVP
modifications: not fully specified
B3: individual phage clone 6.245 (Mosd11) (peptide, not shown: large carriers)
peptide: LSMNITTVHRWH
modifications: not fully specified
B4: individual phage clone 6.141 (Mosd12) (peptide, not shown: large carriers)
peptide: VHWDFRQWWQQS
modifications: not fully specified
B5: individual phage clone 6.113 (Mosd13) (peptide, not shown: large carriers)
peptide: YSFHFEMNMGNY
modifications: not fully specified
B6: individual phage clone 6.197 (Mosd14) (peptide, not shown: large carriers)
peptide: EHWDFGQWWQQS
modifications: not fully specified
B7: individual phage clone 6.255 (Mosd15) (peptide, not shown: large carriers)
peptide: GQWDFRQWWQPC
modifications: not fully specified
B8: individual phage clone 6.139 (Mosd16) (peptide, not shown: large carriers)
peptide: DWSSRVYRDPQT
modifications: not fully specified
B9: individual phage clone 6.240 (Mosd17) (peptide, not shown: large carriers)
peptide: ERSQWGHRDPQS
modifications: not fully specified
B10: individual phage clone 6.257 (Mosd18) (peptide, not shown: large carriers)
peptide: DRSKGDHRITQM
modifications: not fully specified
B11: individual phage clone 6.190 (Mosd19) (peptide, not shown: large carriers)
peptide: DLRFSSLWKLSH
modifications: not fully specified
B12: individual phage clone 5.80 (Mosd2) (peptide, not shown: large carriers)
peptide: HTWTTYDYVWRL
modifications: not fully specified
B13: individual phage clone 6.167 (Mosd20) (peptide, not shown: large carriers)
peptide: VHWDFRQWWQPS
modifications: not fully specified
B14: individual phage clone 6.135 (Mosd21) (peptide, not shown: large carriers)
peptide: FSWSMVMPWPTA
modifications: not fully specified
B15: individual phage clone 5.57 (Mosd3) (peptide, not shown: large carriers)
peptide: GTMLKFSGMNLT
modifications: not fully specified
B16: individual phage clone 5.81 (Mosd4) (peptide, not shown: large carriers)
peptide: HNWFYWTTEPYD
modifications: not fully specified
B17: individual phage clone 6.216 (Mosd5) (peptide, not shown: large carriers)
peptide: HNWSWEWWYNPN
modifications: not fully specified
B18: individual phage clone 6.249 (Mosd6) (peptide, not shown: large carriers)
peptide: STLHFYTAFLNK
modifications: not fully specified
B19: individual phage clone 6.247 (Mosd7) (peptide, not shown: large carriers)
peptide: FSHSHHTWFTWN
modifications: not fully specified
B20: individual phage clone 6.227 (Mosd8) (peptide, not shown: large carriers)
peptide: HFWSWTSLSMTR
modifications: not fully specified
B21: individual phage clone 6.239 (Mosd9) (peptide, not shown: large carriers)
peptide: HLSWYWEKYLTS
modifications: not fully specified

molecular target: mixture of biotinylated D-enantiomeric Aβ1-42 oligomers and fibrils (UniProt P05067); assay: monoclonal phage ELISA, A450; signal on immobilized oligomers/fibrils (normalized by the 6E10 control) against signal on monomers set to 100%
Sequence (P05067 672-713 limits assumed, form in doubt): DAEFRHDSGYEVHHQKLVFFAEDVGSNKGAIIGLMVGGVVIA

| Binder | Difference in signal strength between Aβ1-42 monomers (100%) and Aβ1-42 oligomers and fibrils [%] |
| --- | --- |
| B1 | 72 |
| B2 | 71.9 |
| B3 | 57.7 |
| B4 | 59 |
| B5 | 57.2 |
| B6 | 56.5 |
| B7 | 60 |
| B8 | 52.4 |
| B9 | 54.5 |
| B10 | 49.2 |
| B11 | 50.3 |
| B12 | 67.1 |
| B13 | 45.7 |
| B14 | 46 |
| B15 | 60 |
| B16 | 69.2 |
| B17 | 62.7 |
| B18 | 68 |
| B19 | 58 |
| B20 | 68.6 |
| B21 | 68 |
